# From patent US7888089B2, “eNOS mutations useful for gene therapy and therapeutic screening” (Yale University, priority 1999, dated 2011)
# Several values for one entry are separate records, joined by “and”; a condition that tells them apart may be missing. Identical values can stand only once. Like-named read-outs stand apart in the source and are kept apart here.
# B1: S1179D: bovine eNOS with serine 1179 mutated to aspartic acid (protein)
# chain: GNLKSVGQEPGPPCGLGLGLGLGLCGKQGPASPAPEPSRAPAPATPHAPDHSPAPNSPTLTRPPEGPKFPRVKNWELGSITYDTLCAQSQQDGPCTPRCCLGSLVLPRKLQTRPSPGPPPAEQLLSQARDFINQYYSSIKRSGSQAHEERLQEVEAEVASTGTYHLRESELVFGAKQAWRNAPRCVGRIQWGKLQVFDARDCSSAQEMFTYICNHIKYATNRGNLRSAITVFPQRAPGRGDFRIWNSQLVRYAGYRQQDGSVRGDPANVEITELCIQHGWTPGNGRFDVLPLLLQAPDEAPELFVLPPELVLEVPLEHPTLEWFAALGLRWYALPAVSNMLLEIGGLEFSAAPFSGWYMSTEIGTRNLCDPHRYNILEDVAVCMDLDTRTTSSLWKDKAAVEINLAVLHSFQLAKVTIVDHHAATVSFMKHLDNEQKARGGCPADWAWIVPPISGSLTPVFHQEMVNYILSPAFRYQPDPWKGSATKGAGITRKKTFKEVANAVKISASLMGTLMAKRVKATILYASETGRAQSYAQQLGRLFRKAFDPRVLCMDEYDVVSLEHEALVLVVTSTFGNGDPPENGESFAAALMEMSGPYNSSPRPEQHKSYKIRFNSVSCSDPLVSSWRRKRKESSNTDSAGALGTLRFCVFGLGSRAYPHFCAFARAVDTRLEELGGERLLQLGQGDELCGQEEAFRGWAKAAFQASCETFCVGEEAKAAAQDIFSPKRSWKRQRYRLSTQAEGLQLLPGLIHVHRRKMFQATVLSVENLQSSKSTRATILVRLDTAGQEGLQYQPGDHIGICPPNRPGLVEALLSRVEDPPPPTESVAVEQLEKGSPGGPPPSWVRDPRLPPCTLRQALTFFLDITSPPSPRLLRLLSTLAEEPSEQQELETLSQDPRRYEEWKWFRCPTLLEVLEQFPSVALPAPLLLTQLPLLQPRYYSVSSAPNAHPGEVHLTVAVLAYRTQDGLGPLHYGVCSTWLSQLKTGDPVPCFIRGAPSFRLPPDPYVPCILVGPGTGIAPFRGFWQERLHDIESKGLQPAPMTLVFGCRCSQLDHLYRDEVQDAQERGVFGRVLTAFSREPDSPKTYVQDILRTELAAEVHRVLCLERGHMFVCGDVTMATSVLQTVQRILATEGDMELDEAGDVIGVLRDQQRYHEDIFGLTLRTQEVTSRIRTQDFSLQERHLRGAVPWAFDPPGPDTPGP
# Columns and labels:
# [1] = system: cytochrome c; assay: NADPH-cytochrome c reductase activity of purified eNOS; assay type: biochemical; conditions: for EC50: cytochrome c reduction; for Km: Km for NADPH
# Experimental: Assays for Reductase Activity—NADPH-cytochrome c reductase activity and 2,6-dichlorophenolindophenol (DCIP) reduction were measured as a change in absorbance at 550 nm as described previously by Martasek et al. (1999) and Masters et al. (1967) using an extinction coefficient of 0.021 μM^−1 cm^−1 for both cytochrome c and DCIP. Briefly, a reaction mixture (1 ml) contained either cytochrome c (90 μM); DCIP (36 μM), HEPES buffer (50 mM) at pH 7.6, NaCl (250 mM), NADPH (100 μM), calmodulin (120 nM), and CaCl2 (200 μM); or other substances as indicated. The reaction was monitored for 60 s (at 23° C.) after the addition of eNOS. When inactivation of reductase activity was determined by the addition of EGTA (200-800 μM), chelator was added 1 min after initiation of the reaction and monitored for an additional 1 min. The reaction contained HEPES buffer (50 mM) at pH 7.6, CaM (120 nM), and CaCl2 (200 μM) and was initiated with NADPH (100 μM). No NaCl was added in experiments that examined EGTA inactivation of eNOS to mimic the conditions used in the hemoglobin capture experiments. […] Determination of the calcium EC50 for eNOS was performed as described above for the hemoglobin capture assay.
# [2] = system: eNOS; assay: Conversion of L-arginine to L-citrulline by purified eNOS; assay type: biochemical, bovine; conditions: for Kcat (CaM, L-Citrulline): CaM activation of NOS activity
# Experimental: The conversion of L-arginine to L-citrulline was assayed as described previously by Bredt et al. (1990). Briefly, eNOS (0.25-2 μg) was incubated for 3-10 min at 23° C. in the following reaction mixture: 3 pmol of L-[3H]arginine (55 Ci/mmol), 10-300 μM arginine, 1 mM NADPH, 120-200 nM calmodulin, 2 mM CaCl2, and 30 μM BH4 in a final reaction volume of 50-100 μl. The reaction was terminated by the addition of 0.5 ml of 20 mM HEPES, pH 5.5, containing 2 mM EGTA and EDTA. The reaction mixture was placed over Dowex AG50WX8, and the flow-through was counted on a Packard 1500 liquid scintillation analyzer.
# [3] = system: eNOS; assay: Hemoglobin capture assay of NO production by purified eNOS; assay type: biochemical, bovine; conditions: for Kcat (substrate Arginine, Hemoglobin capture): rate of NO production vs L-arginine, optimal conditions
# Experimental: Assay for NOS Activity—NO production was measured by the hemoglobin capture assay as described (Kelm et al., 1988). Briefly, the reaction mixture contained eNOS (0.5-2.5 μg), oxyhemoglobin (8 μM), L-arginine (100 μM), BH4 (5 μM), CaCl2 (120 μM), calmodulin (120-200 nM), and NADPH (100 μM) in HEPES buffer (50 mM), pH 7.4. […] Under these conditions, free calcium was calculated using the WinMAXC program, version
# NOS activity was monitored for linearity over 2 min at 401 nm, and NO production was calculated based on the change of absorbance using the extinction coefficient of 60 mM^−1 cm^−1. All reactions were carried out at 23° C., and each data point represents 3-8 observations. The extinction coefficient of 0.0033 μM^−1 cm^−1 at 276 nm was used for determination of calmodulin concentration. […] When the inactivation of eNOS was determined by the addition of EGTA (200-800 μM) to the reaction mixture, chelator was added 1 min after initiation of the reaction by NADPH. Identical conditions were used when NADPH-cytochrome c reductase activity was examined. These reactions contained CaM (120 nM) and CaCl2 (200 μM) in a 0.5-ml volume with eNOS (0.5 μg).
# [4] = system: eNOS; assay: NOS activity (3H-L-arginine to 3H-L-citrulline) in COS cell lysates; assay type: biochemical, bovine; conditions: COS cells transfected with eNOS only, n=3
# From the text: NOS activity assays: The conversion of ^3H-L-arginine to ^3H-L-citrulline was used to determine NOS activity in COS cell or endothelial cell lysates as previously described by Garcia-Cardena et al. (1998).
molecule,measurement,setting,value
B1,"kcat for CaM activation of cytochrome c reduction, S1179D compared with wild type",[1],about 2 fold
same,"Kcat (CaM, Cytochrome c)",[1]; CaM activation of cytochrome c reduction,19 s⁻¹ and 19 ± 1.25 s⁻¹
same,EC50,"[1]; EC50 for CaM, listed as S1179D eNOS, read-out: EC50 (CaM, Cytochrome c)",13 nM
same,EC50,"[1]; EC50 for CaM, read-out: EC50 (CaM, Cytochrome c)",21 nM
same,EC50,"[1]; EC50 for free calcium, read-out: EC50 (Ca2+, Cytochrome c, 100 mM KCl)",220 nM
same,cytochrome c reduction activity compared with wild type eNOS,[1]; FIG. 6B,significant increase in activity
same,Km,[1]; absence of CaM,2 µM
same,Km,[1]; presence of CaM,1.9 µM
same,"Kcat − CaM (NADPH, Cytochrome c)","[1]; NADPH dependence, absence of CaM",4.83 ± 0.15 s⁻¹
same,"Kcat − CaM (NADPH, Cytochrome c)","[1]; NADPH dependence, absence of CaM, listed as eNOS S1179D",4.83 s⁻¹
same,"Kcat + CaM (NADPH, Cytochrome c)","[1]; NADPH dependence, presence of CaM",14 s⁻¹ and 14 ± 0.983 s⁻¹
same,"basal cytochrome c reduction, S1179D compared with wild type eNOS",[1]; absence of CaM,4 fold
same,"cytochrome c reduction, first value of pair (with superoxide dismutase)",[1]; absence of CaM,278 ± 9 min⁻¹
same,"cytochrome c reduction, second value of pair (without superoxide dismutase)",[1]; absence of CaM,288 ± 7 min⁻¹
same,"Kcat (Ca2+, Cytochrome c, 100 mM KCl)",[1]; calcium activation,63.3 ± 0.9 s⁻¹
same,"maximal turnover rate, FIG. 8D",[1]; calcium-dependent cytochrome c reduction,3810 min⁻¹
same,"maximal turnover rate, FIG. 8B",[1]; calmodulin-dependent cytochrome c reduction,1400 min1
same,reductase activity after calcium chelation with EGTA,[1]; highest concentration of EGTA,residual reductase activity was found
same,cytochrome c reduction with superoxide dismutase,[1]; presence of CaM,1179 ± 43 min⁻¹
same,cytochrome c reduction without superoxide dismutase,[1]; presence of CaM,1518 ± 19 min⁻¹
same,relative decrease in cytochrome c activity in the presence of superoxide dismutase,[1]; presence of CaM,22%
same,CaM-stimulated cytochrome c reduction,"[1]; presence of CaM, n=3-5",1272 ± 55 min⁻¹
same,level of stimulation of cytochrome c reduction by CaM,[1]; with vs without CaM,3 fold
same,"Kcat (CaM, L-Citrulline)",[2],0.717 ± 0.033 s⁻¹
same,"Kcat (CaM, L-Citrulline)",[2]; listed as S1179D eNOS,0.717 s⁻¹
same,EC50,"[2]; EC50 for CaM, NOS activity",7 nM
same,sensitivity of NO production to the addition of EGTA,"[3]; 0-600 μM EGTA, 200 μM calcium",less sensitive to the addition of EGTA
same,NO production after calcium chelation with EGTA,"[3]; 600 μM EGTA, 200 μM calcium",residual activity was still detected
same,EC50,"[3]; EC50 for free calcium, NO production, 250 nM CaM, read-out: EC50 (Ca2+, Hemoglobin capture, 100 mM KCl)",250 nM
same,calcium dependence of NO production after normalization for maximal activity,"[3]; FIG. 8C, p<0.05",slightly increased
same,Km,"[3]; Km for L-arginine, read-out: Km (substrate Arginine, Hemoglobin capture)",2.5 µM
same,Km,"[3]; Km for NADPH, in presence of CaM, read-out: Km (NADPH, Hemoglobin capture)",36 µM
same,"Kcat (NADPH, Hemoglobin capture)","[3]; NADPH dependence, in presence of CaM",0.883 ± 0.05 s⁻¹
same,"increase in the Km for NADPH, S1179D compared with wild type eNOS","[3]; NO production, presence of CaM",4 fold
same,"Kcat (Ca2+, Hemoglobin capture, 100 mM KCl)","[3]; calcium activation, 250 nM CaM",1.67 ± 0.05 s⁻¹
same,"maximal turnover rate, FIG. 8C",[3]; calcium-dependent NO production,100 min1
same,"maximal turnover rate, FIG. 8A",[3]; calmodulin-dependent hemoglobin capture,43 min⁻¹
same,"Kcat (substrate Arginine, Hemoglobin capture)",[3],1.4 ± 0.1 s⁻¹
same,"Kcat (substrate Arginine, Hemoglobin capture)",[3]; listed as S1179D eNOS,1.4 ± 0.1 s⁻¹
same,NOS activity in lysates,[4],131.8±36.7 pmol L-citrulline generated/mg protein
